± gives the standard deviation of the averaged measurements.
Columns and labels:
Saccharomyces cerevisiae [1] = assay: protein stability index of tFT-peptide fusion (C-terminal peptide) (PSI (0-1 scale)); higher = more stable (slower turnover); details: genetic background: wild type; temperature: 30 C
Saccharomyces cerevisiae [2] = assay: as above
Method: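 MPS profiling in S. cerevisiae of the tFT-X12 degron library: putative degron peptides plus stable controls, 12 aa, fused to the C-terminus of a sfGFP-mCherry timer. Cells are FACS-sorted into 8 mCherry/sfGFP bins and deep-sequenced. PSI runs from 0 (unstable) to 1 (stable). Backgrounds are wild type, das1Δ and doa10Δ at 30 °C, and wild type, das1Δ, cdc34-1 and cdc53-1 at 37 °C; 2-3 technical replicates each.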

[3] = genetic background: cdc34-1, temperature: 37 C
[4] = genetic background: cdc53-1, temperature: 37 C
[5] = genetic background: das1 deletion, temperature: 30 C
[6] = genetic background: das1 deletion, temperature: 37 C
[7] = genetic background: doa10 deletion, temperature: 30 C
[8] = genetic background: wild type, temperature: 30 C
[9] = genetic background: wild type, temperature: 37 C
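Also: PSI is a weighted mean of sequencing reads over stability bins, variants kept only with over 10 reads, mCherry proximal and sfGFP distal, peptide attached via GGGS linker.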

Sequence	protein stability index (Saccharomyces cerevisiae [1])	protein stability index (Saccharomyces cerevisiae [2]; [3])	protein stability index (Saccharomyces cerevisiae [2]; [4])	protein stability index (Saccharomyces cerevisiae [2]; [5])	protein stability index (Saccharomyces cerevisiae [2]; [6])	protein stability index (Saccharomyces cerevisiae [2]; [7])	protein stability index (Saccharomyces cerevisiae [2]; [8])	protein stability index (Saccharomyces cerevisiae [2]; [9])
VFAWSLYLRWAW	0.489 ± 0.015	0.2813 ± 0.0012	0.287 ± 0.0065	0.362 ± 0.025	0.411 ± 0.011	0.481 ± 0.02	0.357 ± 0.017	0.384 ± 0.0076
LLMCCLPFLWVF	0.306 ± 0.021	0.409 ± 0.033	0.432 ± 0.011	0.328 ± 0.039	0.4679 ± 0.0022	0.2085 ± 0.002	0.228 ± 0.022	0.316 ± 0.0053
LFLIFFSFLFLC	0.166 ± 0.028	0.135 ± 0.041	0.0847 ± 0.014	0.206 ± 0.024	0.26132 ± 1.1e-05	0.211 ± 0.0073	0.114 ± 0.04	0.141 ± 0.02
PWEYSSQLVLVI	0.281 ± 0.022	0.0478 ± 0.02	0.0865 ± 0.011	0.179 ± 0.025	0.2067 ± 0.0011	0.155 ± 0.0084	0.177 ± 0.023	0.159 ± 0.021
FVVLVFMLGSVC	0.365 ± 0.037	0.274 ± 0.035	0.379 ± 0.029	0.254 ± 0.044	0.454 ± 0.044	0.234 ± 0.0062	0.245 ± 0.049	0.426 ± 0.035
WLCLGLVVGLFL	0.433 ± 0.041	0.44 ± 0.0069	0.488 ± 0.013	0.383 ± 0.029	0.459 ± 0.0058	0.339 ± 0.031	0.362 ± 0.017	0.47 ± 0.015
VSWWRGVYVVLF	0.518 ± 0.039	0.503 ± 0.019	0.5319 ± 0.00099	0.388 ± 0.031	0.566 ± 0.0089	0.342 ± 0.013	0.357 ± 0.018	0.526 ± 0.023
LWAPFWVSRVTA	0.347 ± 0.012	0.481 ± 0.017	0.513 ± 0.0085	0.408 ± 0.035	0.5677 ± 0.0039	0.21 ± 0.004	0.247 ± 0.026	0.42 ± 0.0086
WLYPVFKISYCV	0.381 ± 0.014	0.492 ± 0.0089	0.533 ± 0.024	0.357 ± 0.032	0.5131 ± 0.0049	0.282 ± 0.0049	0.33 ± 0.021	0.464 ± 0.017
GGTFWDGLVLVH	0.497 ± 0.097	0.34 ± 0.023	0.418 ± 0.03	0.32 ± 0.028	0.484 ± 0.0082	0.274 ± 0.013	0.334 ± 0.035	0.45476 ± 9.2e-06
VRTFAVSCLCVC	0.301 ± 0.0037	0.0897 ± 0.018	0.139 ± 0.034	0.19 ± 0.019	0.23 ± 0.0066	0.126 ± 0.0024	0.133 ± 0.013	0.128 ± 0.0014
VWSCILPMVYVW	0.203 ± 0.0046	0.111 ± 0.066	0.109 ± 0.0066	0.156 ± 0.022	0.1639 ± 0.00068	0.135 ± 0.016	0.158 ± 0.0067	0.157 ± 0.011
CKKATILRIKSM	0.304 ± 0.013	0.589 ± 0.049	0.715 ± 0.051	0.643 ± 0.014	0.691 ± 0.0021	0.17 ± 0.023	0.19 ± 0.031	0.298 ± 0.059
CGWFVSVGWRLG	0.25 ± 0.013	0.5443 ± 0.0014	0.67 ± 0.037	0.514 ± 0.016	0.66 ± 0.0096	0.228 ± 0.014	0.305 ± 0.035	0.5062 ± 0.0022
LAGLVRFWGCVG	0.341 ± 0.0037	0.622 ± 0.022	0.7111 ± 0.0023	0.656 ± 0.015	0.748 ± 0.019	0.122 ± 0.019	0.141 ± 0.03	0.236 ± 0.0026
LSCCIVLLIIFV	0.338 ± 0.055	0.245 ± 0.021	0.35 ± 0.021	0.27 ± 0.026	0.39762 ± 0.00019	0.253 ± 0.0077	0.262 ± 0.029	0.341 ± 0.025
GYSMPVSFFFAL	0.356 ± 0.0092	0.669 ± 0.057	0.779 ± 0.012	0.616 ± 0.017	0.745 ± 0.0082	0.201 ± 0.011	0.24 ± 0.017	0.453 ± 0.014
VVLWVVCWGCWK	0.328 ± 0.027	0.237 ± 0.05	0.339 ± 0.021	0.215 ± 0.038	0.432 ± 0.024	0.179 ± 0.015	0.205 ± 0.029	0.421 ± 0.021
YLGSPLSLMLVA	0.475 ± 0.032	0.48 ± 0.022	0.491 ± 0.026	0.379 ± 0.031	0.51 ± 0.006	0.332 ± 0.031	0.355 ± 0.022	0.481 ± 0.009
MLLFVSCCVFLF	0.206 ± 0.063	0.134 ± 0.021	0.185 ± 0.011	0.202 ± 0.038	0.292 ± 0.0093	0.157 ± 0.0093	0.169 ± 0.032	0.219 ± 0.019

Sequence	protein stability index (Saccharomyces cerevisiae [1])	protein stability index (Saccharomyces cerevisiae [2]; [3])	protein stability index (Saccharomyces cerevisiae [2]; [4])	protein stability index (Saccharomyces cerevisiae [2]; [5])	protein stability index (Saccharomyces cerevisiae [2]; [6])	protein stability index (Saccharomyces cerevisiae [2]; [7])	protein stability index (Saccharomyces cerevisiae [2]; [8])	protein stability index (Saccharomyces cerevisiae [2]; [9])
GVAILFTFFRLL	0.159 ± 0.022	0.228 ± 0.086	0.526 ± 0.0023	0.456 ± 0.025	0.612 ± 0.02	0.0564 ± 0.016	0.0756 ± 0.0073	0.0737 ± 0.012
YWGFHPCCAFGY	0.711 ± 0.0091	0.722 ± 0.048	0.784 ± 0.012	0.636 ± 0.013	0.77 ± 0.023	0.654 ± 0.035	0.659 ± 0.019	0.745 ± 0.051
IFSTQMVRFSLL	0.362 ± 0.019	0.629 ± 0.052	0.7324 ± 0.0061	0.662 ± 0.0074	0.7692 ± 0.0033	0.261 ± 0.0058	0.272 ± 0.017	0.422 ± 0.018
SIWVGSRFRWVV	0.35 ± 0.062	0.642 ± 0.0088	0.7361 ± 0.0011	0.665 ± 0.034	0.7748 ± 0.0015	0.134 ± 0.017	0.134 ± 0.021	0.344 ± 0.052
IVVSSRFLGFFC	0.2 ± 0.0025	0.53 ± 0.073	0.701 ± 0.07	0.62 ± 0.032	0.742 ± 0.0077	0.0947 ± 0.012	0.102 ± 0.012	0.18 ± 0.0083
PSPFHSFYLRLI	0.398 ± 0.033	0.5716 ± 0.0014	0.643 ± 0.009	0.579 ± 0.011	0.712 ± 0.028	0.263 ± 0.0033	0.249 ± 0.014	0.483 ± 0.0017
MMYTLSMLLRLR	0.513 ± 0.047	0.43 ± 0.014	0.5 ± 0.0093	0.506 ± 0.016	0.528 ± 0.015	0.64799 ± 0.00045	0.52 ± 0.02	0.546 ± 0.0085
LCSCMWISAIAI	0.445 ± 0.0055	0.5594 ± 0.0027	0.574 ± 0.006	0.435 ± 0.024	0.582 ± 0.014	0.41 ± 0.036	0.435 ± 0.027	0.533 ± 0.039
LSVRLYRTVFLV	0.148 ± 0.02	0.359 ± 0.044	0.603 ± 0.016	0.53 ± 0.02	0.6697 ± 0.0046	0.0603 ± 0.012	0.0721 ± 0.0073	0.0864 ± 0.023
GLFGFASPPPPS	0.25 ± 0.032	0.678 ± 0.042	0.7583 ± 0.0047	0.677 ± 0.016	0.749 ± 0.0081	0.6784 ± 0.0035	0.71 ± 0.021	0.722 ± 0.011
DKVTLLRRCKQY	0.202 ± 0.12	0.606 ± 0.03	0.726 ± 0.009	0.634 ± 0.026	0.701 ± 0.015	0.173 ± 0.029	0.206 ± 0.03	0.311 ± 0.012
PPTPYPRFIFSF	0.459 ± 0.027	0.688 ± 0.048	0.7541 ± 0.0012	0.647 ± 0.023	0.7672 ± 0.0047	0.331 ± 0.02	0.372 ± 0.028	0.601 ± 0.0037
RGFIFFALWSFC	0.384 ± 0.08	0.458 ± 0.0091	0.544 ± 0.021	0.375 ± 0.031	0.5317 ± 0.0053	0.334 ± 0.021	0.35 ± 0.016	0.498 ± 0.022
NCVDRFKGQKRM	0.505 ± 0.031	0.655 ± 0.055	0.723 ± 0.029	0.64 ± 0.027	0.711 ± 0.0013	0.422 ± 0.021	0.491 ± 0.023	0.6341 ± 0.0052
HVLALIFLYIPD	0.4163 ± 0.0012	0.43 ± 0.045	0.55 ± 0.032	0.33 ± 0.037	0.5422 ± 0.0044	0.317 ± 0.021	0.355 ± 0.019	0.501 ± 0.0067
TYKHIVRVNKCE	0.318 ± 0.04	0.594 ± 0.031	0.684 ± 0.021	0.627 ± 0.033	0.727 ± 0.0073	0.179 ± 0.0066	0.184 ± 0.025	0.286 ± 0.0033
RIAIRSAVICAS	0.183 ± 0.028	0.306 ± 0.05	0.379 ± 0.0076	0.276 ± 0.028	0.487 ± 0.0057	0.101 ± 0.032	0.138 ± 0.038	0.154 ± 0.02
VVFVRLGWMRAC	0.172 ± 0.046	0.441 ± 0.034	0.52 ± 0.017	0.43 ± 0.03	0.59 ± 0.018	0.0904 ± 0.01	0.0972 ± 0.021	0.112 ± 0.0058
WNIVKHREDMLS	0.524 ± 0.14	0.685 ± 0.013	0.768 ± 0.015	0.638 ± 0.021	0.7359 ± 0.0046	0.63 ± 0.033	0.621 ± 0.027	0.7213 ± 0.0053

From the supplement of paper PMC10724198
